# According to the DeepSol protein solubility set:
# Experiment: soluble on expression in E. coli; label from the status in PepcDB or PDB records
row,Sequence,soluble on expression in E. coli
1,MAHHHHHHMAAAPSATAPKHNYTLGTNASQLELYKYLKTVPPIPELRQAVTIKKYEEASVDDTLYPLIDEHQIIMVVGAFFGDEGKGKTVDAVARHPACTCVARVNSGENAGHTVFDDIGRKYVFNLAPSSLLTPNTRNYVSSECVMDPISFMEREIGQFIKSNMPYKDKLFVGNVFVVTPYHKLLDLLGSAPNSSTLKGMSPIHASKVTKRGIRLDHIFNDEGVLRARLAKDMDTYYGLLKVKGLTDKDVVRRCQEENADGVERVPGYVVDFARAENKIDYLVKLYTERVKNNKDFPRRCDVTHELRAALARGEKLLLEGPQSYWLSNAREKFWESTTSADTTAGGLLASAQFNFQRYKVLVINVHKAPGSSRVGIGANPSSFVPQDYYSAQDIKTLEALPKGGCVDFDKIQNFFYTKAFNTESKTFNGIYEPLEYEDATGKYNIGVAMSIASARHHGECGAVTKKPRVCGFFDCVLHFEVNAVQGPYLSISAVDRGDDYDRIGITIAYVYYDVGNKMVDANGRVYKNGDIIKAGDPVPCEMALYHCYPIVKVINGWKGAPIAASKRRPNEPLPKGVCEFIANVEFFTGAKVISIGNGPRGSDIIYLKQ,soluble
2,MGSDKIHHHHHHMCEISVVMPVYNAEMHIKDAIESVLEQSFVDFEFILIDDGSTDHTSSIIQSYNDKRVRLIQNSHNFIESLNLGIENSLGKYMARMDGDDIMHIDRLKIQYAIMQEYPDVTVCGTWMNSIGTYSQTNGLLSTLSGWVEQPLLKFTKGNFLFHPTTMIRMDFLKKNALKYENYPYAEDFKFWVEIAKSGGRFYIDSQPLLYYRISDSQVSSQKSSEQRATTESIINEVLEYLMELNKNEYPELAAAYGDLCKLYEKQLLTKCEVLTLFQTLFSKNEKKLNL,not soluble
3,MNSRIMFIGGVPGVGKTSISGYIARNTDIDIVLSSDYLREFLRPFAPQESHLETSVYDAWKFYGDMSDDNIIRGYLDQARPIMGGINRVIARALANGEDLIIESLYFVPDMMDEMVLKNAFLAYVYIDDPDLHRSRLEDRINYTHRNSPGSRLAAHLKEYRTIMDYSMDMARGRGIGLYSTDDYALARQRLLDDFRKFVDRR,not soluble
4,MAQLYYRYGTMNSGKTIEILKVAYNYEEQGKGVVIMTSALDTRDGVGYVSSRIGMKRPALAIEETTDIFGYIRDLPEKPYCVLVDEAQFLKRHHVYDLARVVDELDIPVMAFGLKNDFRNELFEGSKYLLLLADKIDEIKTICQYCKKKATMVLRTQDGLPVYDGEQIQIGGNETYISVCRKHYFAPMITSNKEQNYDN,not soluble
5,MADIVQLKENGVVKYMKTHADAIDGVEGKLVKAVGNETVLGTKNFQDGIQIGGKSVSVNAKPTYEVVKDYWDGTGAYLTESQSVTISNSSNVDEIVLIFSRYNDNGGGIVHSIPVTPNITKLKYELPAVAWVGSASTDPTIAYKKISISKSGTSLVITGDTANTLNEANKKIVFREIGVMRRK,not soluble
6,MSASIRDAGVADLPGILAIYNDAVGNTTAIWNETPVDLANRQAWFDARARQGYPILVASDAAGEVLGYASYGDWRPFEGFRGTVEHSVYVRDDQRGKGLGVQLLQALIERARAQGLHVMVAAIESGNAASIGLHRRLGFEISGQMPQVGQKFGRWLDLTFMQLNLDPTRSAP,soluble
7,MSLFIRDNHLHTHHSYDSDANFTDYLTHFDGEIVTTEHYDLSNPYTKQDDVPDYESYSHEVEKLNLKYGNRIKRGIEIGYYQPRESDILDFLDGKDYDLKLLSVHHNGVNDYLDDEVAEMDKANIIQEYLDKLEYAVGRVDADVLAHFDYGFRLFDVTVDELKAYENQLKRIFKKMIANDLAFELNSKSMYLYHHEGLYRYVLALVKDLGCRKYSIGSDGHKLEHFRLNFDKIQELLREFEITEDMEGHHHHHH,not soluble
8,GAMGSYDWLPRLSKENFNAAPVTCFPHAPGCEVWDNLGVGMKVEVENTDCDSIEVIQPGQTPTSFWVATILEIKGYKALMSYEGFDTDSHDFWVNLCNAEVHSVGWCATRGKPLIPPRTIEHKYKDWKDFLVGRLSGARTLPSNFYNKINDSLQSRFRLGLNLECVDKDRISQVRLATVTKIVGDRLFLRYFDSDDGFWCHEDSPIIHPVGWATTVGHNLAAPQDYLERMLAGREAMIEVHEDDATIELFKMNFTFDEYYSDGKTNSFVEGMKLEAVDPLNLSSICPATVMAVLKFGYMMIRIDSYQPDASGSDWFCYHEKSPCIFPAGFCSVNNISVTPPNGYDSRTFTWEGYLSDTGAVAAGQHLFHDIIPDHGFEVGMSLECADLMDPRLVCVATVARVVGRLLKVHFDGWTDEYDQWLDCESADIYPVGWCVLVNHKLEGPPR,soluble
9,MTRVAINGFGRIGRMVFRQAIKESAFEIVAINASYPSETLAHLIKYDTVHGKFDGTVEAFEDHLLVDGKMIRLLNNRDPKELPWTDLGVEVVIEATGKFNSKEKAILHVEAGAKKVILTAPGKNEDVTIVVGVNEDQLDITKHTVISNASCTTNCLAPVVKVLDEQFGIENGLMTTVHAYTNDQKNIDNPHKDLRRARACGQSIIPTTTGAAKALAKVLPHLNGKLHGMALRVPTPNVSLVDLVVDVKRDVTVEAINDAFKTVANGALKGIVEFSEEPLVSIDFNTNTHSAIIDGLSTMVMGDRKVKVLAWYDNEWGYSRRVVDLVTLVVDELAKQENVQHI,soluble
10,MVLAERDDRLLGFASFRRTEDFAHYQPQRADAPRAYICEAVVHPAAAGQGLGSALLEAVLAQLADEGIEDVYIDRHEENLASAGMMRKAGFV,soluble
11,MRTLAVISAGLSTPSSTRQIADSISEAVTAAVSARGEALSVSTIELSELIPDLMTAMTTRVHTTKLEEITSALSASDGLVVATPVFKASYTGLFKMFFDILDTDALTGMPTIIAATAGSARHSLVLDYALRPLLSYMRAVVVPTGVFAATEDFGGPEGAEFNKRIARAAGELASLIVEESGNVGLEHHHHHH,not soluble
12,MATGDGKSVMVVGVDDSEQSTYALEWTLDRFFAPYAPNYPFKLFIVHAKPNAVSAVGLAGPGTAEVVPYVDADLKHTAAKVVEKAKAICQSRSVHGAVIEVFEGDARNILCEVVDKHHASILVVGSHGYGAIKRAVLGSTSDYCAHHAHCSVMIVKKPKIKV,soluble
13,MSLNIHPMWNTYPTLSKELTTTLRLMEQAVQIDNQEIQAAVHDMIHSGGKLLRPAYQLLFSYFGEQRDPKKATALAASIELLHTATLVHDDIVDEADTRRGLPTLRSRFGNSTAVYTGDYLFVCCFKLLSDYSSSLKSIQLNSRSMEKVLTGELGQMDNRYNFEVTIDQYLKNISGKTAELFALSCFVGAYESGTSQRFAKRCGEIGENIGLAFQIIDDILDYTQTADAIGKPVLEDVRQGVYSLPLIYALEANREVLLPLLMKKEALTDEETQEIYRLVHELGGVEKAQELATHYTEKALKEISKLPETKAQAKEQLYEITQTILTREGHHHHHH,soluble
14,MGLSTSNKPLSERIEESKKDVFMQKAVAKAQDAQWEKREGAREALGNWPQWRELGEQIRQHTIQYLPDYLEEFSDNVAKRGGKVFFAQTAEEANEYVKQVVLEKKAKKIVKSKSMVTTEVDIDPMLLGLDDVSVMETDLAEFILQMDDWDEPSHIVFPSIHKNREQIRQVFAKKLGYQGDNDPVNLARCAREVMRKFFLEAEIGITGCNFAIADSGLINLNTNEGNADLTISIPKTQIVLMGMERIVPTMREAEVLDNLLARSAVGQNLTTYVTFAGQKNADESDGPEEFHVVILDNGRSKALGTAFQPVLQCIRCGSCLNVCPVYRHIGGHGYGSIYPGPIGAVLSPILGGYKQFGELPYASSLCGACTETCPVKIPLHELLIEHRKVMTDDLKMKHGFEDFQMRMVGKATGSPAMFKAAMKVDHAAAGILSKQKDITVENMYNHGGYLDKGPGLVKGWTDVRDLPRPPKSSENFRSWFKKHQEGEKND,not soluble
15,MGSDKIHHHHHHMTNLLSVRDLSIALCQGQEQRYILEKVTFEIKEGETVALVGESGSGKSVTALSILQLLPFLKTLYQSGEILFNDKDLLKQKEEDLRKVRGKDIAMIFQEPMTALNPLHNVERQIGEVLKMHSDMTNQSLRAHIIDLLTQVGIHEPQKRLGSFPHELSGGQRQRVMIAMALANNPRLLIADEPTTALDVTVQARILELLVHLKKQNNMSMLFITHNLAIVRCIADRVYVMRKGKIVESAPIDQLFANAQKPYTKQLLAAEPKGYPLQADKSAPILMQGKKVRVWFPIKKGLLRRTKGYIKAVQDMDVTIRVGQTLGVVGESGSGKTTLGLSLIRMLSSKGQIIFDDIDISNFTFKKMRSLRRHIQIVFQDPFGSLSPRMSVSEIIAEGLSIHEPKLSYSERNDRVIEALHEVNLDPSTRYRYPHEFSGGQRQRIALARAIILKPRFIMLDEPTSSLDVSVQAQIISLLLHLQKKYHLGYLFISHDLKVIKALAHEVIVMRNGEMVEYGSADRIFSCPQNTYTQSLMAAAFALESDRL,not soluble
16,MTKHARFSLLPSFIIFSAALLAGCNDQGDTQAHAGEPQVTVHVVETAPLAVTTELPGRTSAFRIAEVRPQVSGIVLKRNFTEGSDVEAGQSLYQIDPATYQADYDSAKGELAKSEAAAAIAHLTVKRYVPLVGTKYISQQEYDQAIADARQADAAVVAAKAAVESARINLAYTKVTSPISGRIGKSNVTEGALVTNGQSTELATVQQLDPIYVDVTQSSNDFMRLKQSVEQGNLHKDSASSTVQLVMENGQVYPIKGTLQFSDVTVDESTGSITLRAVFPNPQHSLLPGMFVRARIDEGVQPNAILVPQQGVTRTPRGDAMVMVVNDKSQVEARNVVAAQAIGDKWLISEGLKPGDKVIVSGLQKARPGVQVKATTDAPAAKTAQ,not soluble
17,NATQINEELYRLLEDTEILNQEITEGLLKGFEVPDAGVAIQLSKRDVVYPARILIIVLSEMWRFGLTKQSESFLAQVLTTIQKVVTQLKGNDLIPSGVFWLANVRELYSFVVFALNSILTEETFKNGMTDEEYKEYVSLVTELKDDFEALSYNIYNIWLKKLQKQLQKKAINAVVISESLPGFSAGETSGFLNKIFANTEEYTMDDILTFFNSIYWCMKSFHIENEVFHAVVTTLLNYVDAICFNELIMKRNFLSWKRGLQLNYNVTRLEEWCKTHGLTDGTECLQHLIQTAKLLQVRKYTIEDIDILRGICYSLTPAQLQKLISQYQVADYESPIPQEILRYVADIVKKEAALSSSGNDSKGHEHSSSIFITPETGPFTDPFSLIKTRKFDQVEAYIPAWLSLPSTKRIVDLVAQQVV,soluble
18,MSTGANLLVMNDTCKSNRWWKTKQEKKHSEIKKVKTLKSTWDKKMELKAKKDMVKRVQDNIREKQVQERQEKKERKVEQEKRRLENERKAEIVQKITKIHKLKKTKKRQLRSIQMRDTTQVTK,not soluble
19,MGSDKIHHHHHHIANVETSSRNAIGFNVLSNAAETRATPTTNTNLKNTDFDVFAFTADGTAFMGKNDTEFEHDGVKIVYKNGKWDYDNASDLRYWPTEALDFYAFNPGTVSEDMMAFYSWEATKDVQKISYTCMDEYGSGTTHANYDVMYAMAKGQTKDMNNGIVKFNFKHILSQVVFKAKTQYDNMQVDIDVIKIHNFKFAGAFTLPAAADGTGSWSSSDLAFPHAFTVVKNANITVNSNTEATDITTNTPMLNIPQELTAWKVSETATKSKLEADNAKQCYLEIACKIRQSGAYLLGSASEYKTIYVPFGDTWEQGKRHIYTLIFGGGYDDQGEAVLNPIQFDAETTGWVDADKDVNVQP,not soluble
